“And” between values parts separate entries of the source, which are not always exact repeats. Equal values may be shown once.
Columns and labels:
[1] = target: T1, C-terminally His-tagged full-length p97 (residues 1–806) (murine, UniProt Q01853 1-806); test: ITC; full-length p97 in the cell at 10–50 μM, FAF1 or FAF1 truncation as titrant at 7.5 to 10 times the cell concentration; 20 mM HEPES, 150 mM KCl, pH 7.4; 30 °C; average of two measurements; conditions: both partners purified
T1 construct: p97 (VCP), murine, full length, residues 1–806, in PET22b; Hexamer, with a minor dodecamer, by SV-AUC; also called VCP; valosin-containing protein

[2] = target: the molecule itself; test: native MS; full-length FAF1 at 10 μM in 200 mM ammonium acetate pH 7.5; Q-ToF modified for high mass detection
[3] = target: T1, C-terminally His-tagged full-length p97 …; test: MST; 0.06 μM dye-labelled FAF1 kept constant, full-length p97 titrated between 135 and 0.0041 μM; 20 mM HEPES, 150 mM KCl, pH 7.4; 30 °C; average of two experiments, Hill equation fit; conditions: both partners purified
[4] = target: the molecule itself; test: cross-linking; 15 μM FAF1 or truncation in SEC buffer with ethyl glycol bissuccinimidyl succinate (EGS), 15 min at room temperature, stopped with Tris, SDS-PAGE

T1 sequence (Q01853 whole entry, the tested form may be a part): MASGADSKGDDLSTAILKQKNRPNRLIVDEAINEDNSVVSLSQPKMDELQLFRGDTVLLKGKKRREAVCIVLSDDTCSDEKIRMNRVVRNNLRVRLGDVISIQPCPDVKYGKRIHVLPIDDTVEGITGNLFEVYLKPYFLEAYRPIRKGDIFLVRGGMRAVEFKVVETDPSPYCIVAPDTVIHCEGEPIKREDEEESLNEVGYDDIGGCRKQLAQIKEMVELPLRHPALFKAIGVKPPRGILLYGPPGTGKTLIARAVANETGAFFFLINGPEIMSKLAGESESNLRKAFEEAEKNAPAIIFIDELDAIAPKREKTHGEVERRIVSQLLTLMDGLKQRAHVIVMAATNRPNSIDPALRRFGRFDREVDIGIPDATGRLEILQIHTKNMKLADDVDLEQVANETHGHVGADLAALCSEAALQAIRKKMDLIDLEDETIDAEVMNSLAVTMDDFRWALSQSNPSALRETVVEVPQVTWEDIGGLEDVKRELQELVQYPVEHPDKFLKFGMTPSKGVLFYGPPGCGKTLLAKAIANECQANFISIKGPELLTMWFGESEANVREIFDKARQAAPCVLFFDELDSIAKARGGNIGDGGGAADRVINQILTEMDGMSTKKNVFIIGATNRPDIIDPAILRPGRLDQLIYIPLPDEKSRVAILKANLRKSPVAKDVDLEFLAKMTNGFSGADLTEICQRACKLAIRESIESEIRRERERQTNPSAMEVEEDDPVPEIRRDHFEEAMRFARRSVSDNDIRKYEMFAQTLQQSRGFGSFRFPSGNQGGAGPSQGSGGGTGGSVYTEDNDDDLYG

B1: FAF1-UBX(550–649) (domain or fragment, murine, UniProt P54731 550-649, looked up)
chain: EAIRLSLEQALPPEPKEENAEPVSKLRIRTPSGEFLERRFLASNKLQIVFDFVASKGFPWDEFKLLSTFPRRDVTQLDPNKSLLEVNLFPQETLFLQAKE
notes: Fas-associated factor 1 (FAF1), residues 550–649 (UBX domain), in pGEx; also called UBX domain of FAF1; source: E. coli Rosetta 2 (autoinduction), purified (GSTrap, GST cleaved with HRV 3C, size-exclusion chromatography)
Kd [1]: 3.9 µM | stoichiometry N [1]: 0.98 ± 0.1 FAF1-UBX per p97

B2: N-terminally His-tagged full-length FAF1 (natural protein, murine, UniProt P54731 1-649, looked up)
chain: MASNMDREMILADFQACTGIENIDEAITLLEQNNWDLVAAINGVIPQENGILQSDFGGETMPGPTFDPASHPAPASTPSSSAFRPVMPSRQIVERQPRMLDFRVEYRDRNVDVVLEDSCTVGEIKQILENELQIPVPKMLLKGWKTGDVEDSTVLKSLHLPKNNSLYVLTPDLPPPSSSSHAGALQESLNQNFMLIITHREVQREYNLNFSGSSTVQEVKRNVYDLTSIPVRHQLWEGWPASATDDSMCLAESGLSYPCHRLTVGRRTSPVQTREQSEEQSTDVHMVSDSDGDDFEDASEFGVDDGEVFGMASSTLRKSPMMPENAENEGDALLQFTAEFSSRYGDCHPVFFIGSLEAAFQEAFYVKARDRKLLAIYLHHDESVLTNVFCSQMLCAESIVSYLSQNFITWAWDLTKDTNRARFLTMCNRHFGSVIAQTIRTQKTDQFPLFLIIMGKRSSNEVLNVIQGNTTVDELMMRLMAAMEIFSAQQQEDIKDEDEREARENVKREQDEAYRLSLEADRAKREAHEREMAEQFRLEQIRKEQEEEREAIRLSLEQALPPEPKEENAEPVSKLRIRTPSGEFLERRFLASNKLQIVFDFVASKGFPWDEFKLLSTFPRRDVTQLDPNKSLLEVNLFPQETLFLQAKE
modifications: NanoTemper495-N-hydroxysuccinimide blue/red dye label (in the MST only)
notes: Fas-associated factor 1 (FAF1), full length, in pProEx; the truncations end at residue 649; N-terminally His-tagged FAF1 was used for all experiments except nanogold labelling; also called Fas-associated factor 1; His-tagged FAF1; source: held on the nickel column from cleared lysate in the pull-down; not shown: His tag, N-terminal, kept
stoichiometry N [2]: 2 and 3 | Kd [3]: 0.13 µM | KD site 1 (two-site model) [1]: 0.8 µM | KD site 2 (two-site model) [1]: 19 µM | Kd [1]: 5.2 µM | stoichiometry N [1]: 0.8 ± 0.03 FAF1 per p97

B3: FAF1-CC-UBX(491–649) (domain or fragment, murine, UniProt P54731 491-649, looked up)
chain: QEDIKDEDEREARENVKREQDEAYRLSLEADRAKREAHEREMAEQFRLEQIRKEQEEEREAIRLSLEQALPPEPKEENAEPVSKLRIRTPSGEFLERRFLASNKLQIVFDFVASKGFPWDEFKLLSTFPRRDVTQLDPNKSLLEVNLFPQETLFLQAKE
notes: Fas-associated factor 1 (FAF1), residues 491–649 (coiled-coil and UBX domains), in pGEx; also called coiled-coil and UBX domains of FAF1; source: E. coli Rosetta 2 (autoinduction), purified (GSTrap, GST cleaved with HRV 3C, size-exclusion chromatography)
stoichiometry N [4]: 3 | KD site 1 (two-site model) [1]: 0.7 µM | KD site 2 (two-site model) [1]: 12 µM | Kd [1]: 4.9 µM | stoichiometry N [1]: 0.89 ± 0.3 FAF1-CC-UBX per p97

From publication PMC4002113, “The p97-FAF1 Protein Complex Reveals a Common Mode of p97 Adaptor Binding*” (The Journal of Biological Chemistry, 2014)
